Measurements: the supplement of paper PMC9112550, “Optimization of the antimicrobial peptide Bac7 by deep mutational scanning” (BMC Biology, 2022)

System: Escherichia coli TOP10
Experiment: shrunken log2 fold change of peptide-encoding DNA abundance (4.5 h post-induction vs induction); higher = less antimicrobial activity (less host growth inhibition)
Conditions: time post-induction: 4.5 h; library: site-saturation at positions 5, 18, 19, 20
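Also: peptides expressed intracellularly from a pBAD plasmid library in pooled LB shake-flask culture, induced with 0.3% L-arabinose, DNA abundance read by NGS, three biological replicates, DESeq2 with apeglm shrinkage.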

Sequence	shrunken log2 fold change
RRIRQRPPRLPRPRPRPMYAPRP	0.151
RRIRQRPPRLPRPRPRPMYYPRP	0.0048
RRIRQRPPRLPRPRPRPNAIPRP	-0.393
RRIRQRPPRLPRPRPRPNDAPRP	-0.0276
RRIRQRPPRLPRPRPRPNEYPRP	-1.18
RRIRQRPPRLPRPRPRPNFKPRP	-0.235
RRIRQRPPRLPRPRPRPNFVPRP	-0.0869
RRIRQRPPRLPRPRPRPNGMPRP	-0.0839
RRIRQRPPRLPRPRPRPNHSPRP	-0.762
RRIRQRPPRLPRPRPRPNIDPRP	-0.516
RRIRQRPPRLPRPRPRPNLLPRP	-0.0134
RRIRQRPPRLPRPRPRPNLPPRP	0.0275
RRIRQRPPRLPRPRPRPNPTPRP	0.00513
RRIRQRPPRLPRPRPRPNQHPRP	0.0696
RRIRQRPPRLPRPRPRPNRFPRP	-0.00894
RRIRQRPPRLPRPRPRPNRQPRP	0.0872
RRIRQRPPRLPRPRPRPNRRPRP	0.103
RRIRQRPPRLPRPRPRPNSRPRP	-0.0312
RRIRQRPPRLPRPRPRPNTWPRP	-0.191
RRIRQRPPRLPRPRPRPNTYPRP	-1.07
RRIRQRPPRLPRPRPRPNVNPRP	-0.543
RRIRQRPPRLPRPRPRPPAGPRP	0.866
RRIRQRPPRLPRPRPRPPCNPRP	-0.115
RRIRQRPPRLPRPRPRPPDMPRP	-0.14
RRIRQRPPRLPRPRPRPPDWPRP	0.34

Sequence	shrunken log2 fold change
RRIRQRPPRLPRPRPRPPGFPRP	0.0259
RRIRQRPPRLPRPRPRPPGQPRP	0.136
RRIRQRPPRLPRPRPRPPIQPRP	-0.164
RRIRQRPPRLPRPRPRPPIWPRP	0.113
RRIRQRPPRLPRPRPRPPKAPRP	-0.058
RRIRQRPPRLPRPRPRPPKGPRP	0.021
RRIRQRPPRLPRPRPRPPKSPRP	0.18
RRIRQRPPRLPRPRPRPPKWPRP	0.136
RRIRQRPPRLPRPRPRPPMIPRP	0.0721
RRIRQRPPRLPRPRPRPPNIPRP	-0.3
RRIRQRPPRLPRPRPRPPPGPRP	0.751
RRIRQRPPRLPRPRPRPPQAPRP	0.718
RRIRQRPPRLPRPRPRPPREPRP	0.655
RRIRQRPPRLPRPRPRPPSEPRP	-0.0213
RRIRQRPPRLPRPRPRPPTSPRP	-0.00728
RRIRQRPPRLPRPRPRPPVAPRP	0.121
RRIRQRPPRLPRPRPRPQAGPRP	-0.158
RRIRQRPPRLPRPRPRPQDNPRP	-0.304
RRIRQRPPRLPRPRPRPQDRPRP	-0.254
RRIRQRPPRLPRPRPRPQEEPRP	-0.0176
RRIRQRPPRLPRPRPRPQELPRP	0.157
RRIRQRPPRLPRPRPRPQEYPRP	0.0742
RRIRQRPPRLPRPRPRPQGYPRP	-0.19
RRIRQRPPRLPRPRPRPQHGPRP	-0.000236
RRIRQRPPRLPRPRPRPQHPPRP	-0.131

Sequence	shrunken log2 fold change
RRIRQRPPRLPRPRPRPQHYPRP	-0.447
RRIRQRPPRLPRPRPRPQIGPRP	-0.0384
RRIRQRPPRLPRPRPRPQKKPRP	-0.214
RRIRQRPPRLPRPRPRPQKMPRP	-0.00813
RRIRQRPPRLPRPRPRPQLQPRP	0.112
RRIRQRPPRLPRPRPRPQMAPRP	-0.065
RRIRQRPPRLPRPRPRPQMDPRP	-0.0516
RRIRQRPPRLPRPRPRPQNEPRP	0.121
RRIRQRPPRLPRPRPRPQNSPRP	-0.0328
RRIRQRPPRLPRPRPRPQNWPRP	0.0213
RRIRQRPPRLPRPRPRPQQYPRP	-0.0402
RRIRQRPPRLPRPRPRPQREPRP	0.00728
RRIRQRPPRLPRPRPRPQRHPRP	0.0218
RRIRQRPPRLPRPRPRPQRIPRP	-0.226
RRIRQRPPRLPRPRPRPQVDPRP	-0.0137
RRIRQRPPRLPRPRPRPQYQPRP	-1.46
RRIRQRPPRLPRPRPRPRFQPRP	0.202
RRIRQRPPRLPRPRPRPRGKPRP	0.00142
RRIRQRPPRLPRPRPRPRIRPRP	0.024
RRIRQRPPRLPRPRPRPRLQPRP	0.501
RRIRQRPPRLPRPRPRPRMIPRP	-0.227
RRIRQRPPRLPRPRPRPRMRPRP	0.583
RRIRQRPPRLPRPRPRPRMVPRP	0.166
RRIRQRPPRLPRPRPRPRPFPRP	0.149
RRIRQRPPRLPRPRPRPRPNPRP	0.183

Sequence	shrunken log2 fold change
RRIRQRPPRLPRPRPRPRQSPRP	0.0272
RRIRQRPPRLPRPRPRPRRDPRP	0.308
RRIRQRPPRLPRPRPRPRRQPRP	0.197
RRIRQRPPRLPRPRPRPRSRPRP	0.0402
RRIRQRPPRLPRPRPRPRTAPRP	0.0467
RRIRQRPPRLPRPRPRPRVLPRP	-0.0985
RRIRQRPPRLPRPRPRPRWCPRP	-0.0737
RRIRQRPPRLPRPRPRPRWRPRP	0.557
RRIRQRPPRLPRPRPRPRYEPRP	-0.349
RRIRQRPPRLPRPRPRPRYTPRP	-0.126
RRIRQRPPRLPRPRPRPSCKPRP	-0.259
RRIRQRPPRLPRPRPRPSCVPRP	-0.478
RRIRQRPPRLPRPRPRPSDDPRP	-0.0143
RRIRQRPPRLPRPRPRPSDMPRP	0.0447
RRIRQRPPRLPRPRPRPSFAPRP	0.0485
RRIRQRPPRLPRPRPRPSHVPRP	-0.367
RRIRQRPPRLPRPRPRPSIHPRP	-0.451
RRIRQRPPRLPRPRPRPSIRPRP	-0.523
RRIRQRPPRLPRPRPRPSKFPRP	-0.246
RRIRQRPPRLPRPRPRPSKHPRP	-0.641
RRIRQRPPRLPRPRPRPSKTPRP	-0.0854
RRIRQRPPRLPRPRPRPSLDPRP	-0.222
RRIRQRPPRLPRPRPRPSMCPRP	-0.194
RRIRQRPPRLPRPRPRPSMNPRP	-0.568
RRIRQRPPRLPRPRPRPSPEPRP	-0.0086

Sequence	shrunken log2 fold change
RRIRQRPPRLPRPRPRPSPHPRP	-0.511
RRIRQRPPRLPRPRPRPSSYPRP	-0.416
RRIRQRPPRLPRPRPRPSTKPRP	0.0644
RRIRQRPPRLPRPRPRPSTVPRP	-0.534
RRIRQRPPRLPRPRPRPSTWPRP	-0.116
RRIRQRPPRLPRPRPRPSYAPRP	0.0242
RRIRQRPPRLPRPRPRPTAAPRP	0.933
RRIRQRPPRLPRPRPRPTCLPRP	-0.108
RRIRQRPPRLPRPRPRPTCMPRP	-0.163
RRIRQRPPRLPRPRPRPTDLPRP	0.0327
RRIRQRPPRLPRPRPRPTFLPRP	-0.358
RRIRQRPPRLPRPRPRPTFNPRP	-0.201
RRIRQRPPRLPRPRPRPTHKPRP	0.0649
RRIRQRPPRLPRPRPRPTHRPRP	-0.000309
RRIRQRPPRLPRPRPRPTICPRP	-0.114
RRIRQRPPRLPRPRPRPTIYPRP	-0.552
RRIRQRPPRLPRPRPRPTKHPRP	-0.167
RRIRQRPPRLPRPRPRPTKIPRP	-0.13
RRIRQRPPRLPRPRPRPTMFPRP	-0.208
RRIRQRPPRLPRPRPRPTNPPRP	-0.175
RRIRQRPPRLPRPRPRPTPPPRP	0.537
RRIRQRPPRLPRPRPRPTRWPRP	0.561
RRIRQRPPRLPRPRPRPTSCPRP	-0.0676
RRIRQRPPRLPRPRPRPTSGPRP	-0.0104
RRIRQRPPRLPRPRPRPTSTPRP	-0.0784

Sequence	shrunken log2 fold change
RRIRQRPPRLPRPRPRPTTAPRP	-0.00139
RRIRQRPPRLPRPRPRPTTIPRP	-0.116
RRIRQRPPRLPRPRPRPTVPPRP	-0.0488
RRIRQRPPRLPRPRPRPTWKPRP	0.00778
RRIRQRPPRLPRPRPRPTWTPRP	-0.0772
RRIRQRPPRLPRPRPRPTWVPRP	2.03
RRIRQRPPRLPRPRPRPTYFPRP	-0.0458
RRIRQRPPRLPRPRPRPTYGPRP	-0.293
RRIRQRPPRLPRPRPRPTYHPRP	-0.184
RRIRQRPPRLPRPRPRPVCCPRP	0.161
RRIRQRPPRLPRPRPRPVCDPRP	0.0934
RRIRQRPPRLPRPRPRPVDCPRP	-0.013
RRIRQRPPRLPRPRPRPVDGPRP	-0.13
RRIRQRPPRLPRPRPRPVEMPRP	-0.101
RRIRQRPPRLPRPRPRPVFYPRP	-0.147
RRIRQRPPRLPRPRPRPVHGPRP	-0.0392
RRIRQRPPRLPRPRPRPVKPPRP	-0.00215
RRIRQRPPRLPRPRPRPVLFPRP	0.166
RRIRQRPPRLPRPRPRPVMTPRP	-0.172
RRIRQRPPRLPRPRPRPVNIPRP	0.0209
RRIRQRPPRLPRPRPRPVQCPRP	-0.16
RRIRQRPPRLPRPRPRPVQDPRP	-0.0297
RRIRQRPPRLPRPRPRPVSEPRP	-0.202
RRIRQRPPRLPRPRPRPVSVPRP	0.028
RRIRQRPPRLPRPRPRPVTDPRP	0.05
